In patent US20260183370A1 (ASCENDIS PHARMA GROWTH DISORDERS A S, published 2026):
Bridge positions count the residues as written; N and C are the ends. Side chains are listed from the residue outwards. Ends that are not written are not given here. * marks the point of attachment. Hexanoyl(6-maleimido) = O=C1C=CC(=O)N1CCCCCC(=O)*; reversible prodrug linker = not defined here

T1: NPR-B receptor (natriuretic peptide receptor B), endogenous on NIH-3T3 cells (murine (endogenous in NIH-3T3 cells), UniProt Q6VVW5 17-1047)
T1 sequence (looked up): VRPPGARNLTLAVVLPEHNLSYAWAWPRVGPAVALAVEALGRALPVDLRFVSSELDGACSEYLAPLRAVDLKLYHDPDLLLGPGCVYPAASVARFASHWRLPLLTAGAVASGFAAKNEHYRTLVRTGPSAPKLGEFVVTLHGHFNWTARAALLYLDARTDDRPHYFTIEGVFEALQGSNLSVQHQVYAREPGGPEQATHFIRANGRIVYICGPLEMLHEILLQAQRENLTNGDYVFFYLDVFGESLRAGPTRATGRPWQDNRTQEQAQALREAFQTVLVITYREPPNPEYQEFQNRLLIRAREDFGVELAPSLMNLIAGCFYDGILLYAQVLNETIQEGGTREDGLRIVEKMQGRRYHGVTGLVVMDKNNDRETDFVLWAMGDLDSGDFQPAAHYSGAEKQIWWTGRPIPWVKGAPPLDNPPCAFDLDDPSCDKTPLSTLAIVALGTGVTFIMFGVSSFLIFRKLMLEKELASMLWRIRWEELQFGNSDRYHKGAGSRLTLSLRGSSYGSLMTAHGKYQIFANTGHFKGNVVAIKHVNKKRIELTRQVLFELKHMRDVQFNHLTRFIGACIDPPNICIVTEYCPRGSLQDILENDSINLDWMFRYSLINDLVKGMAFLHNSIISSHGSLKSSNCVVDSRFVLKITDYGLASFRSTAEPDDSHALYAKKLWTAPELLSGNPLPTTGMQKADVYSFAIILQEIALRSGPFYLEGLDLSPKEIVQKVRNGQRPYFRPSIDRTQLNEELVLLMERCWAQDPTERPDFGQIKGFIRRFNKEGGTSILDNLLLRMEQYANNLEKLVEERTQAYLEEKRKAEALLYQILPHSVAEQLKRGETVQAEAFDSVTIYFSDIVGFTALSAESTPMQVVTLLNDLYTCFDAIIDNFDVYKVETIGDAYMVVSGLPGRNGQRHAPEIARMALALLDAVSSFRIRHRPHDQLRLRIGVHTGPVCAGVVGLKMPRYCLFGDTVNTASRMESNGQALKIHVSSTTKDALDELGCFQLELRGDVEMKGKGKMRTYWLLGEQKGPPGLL

T2: NPR-C (natriuretic peptide receptor C), expressed on Hek293 cells (UniProt P17342 27-541, limits assumed)
T2 construct: whole, on cells
T2 sequence (looked up): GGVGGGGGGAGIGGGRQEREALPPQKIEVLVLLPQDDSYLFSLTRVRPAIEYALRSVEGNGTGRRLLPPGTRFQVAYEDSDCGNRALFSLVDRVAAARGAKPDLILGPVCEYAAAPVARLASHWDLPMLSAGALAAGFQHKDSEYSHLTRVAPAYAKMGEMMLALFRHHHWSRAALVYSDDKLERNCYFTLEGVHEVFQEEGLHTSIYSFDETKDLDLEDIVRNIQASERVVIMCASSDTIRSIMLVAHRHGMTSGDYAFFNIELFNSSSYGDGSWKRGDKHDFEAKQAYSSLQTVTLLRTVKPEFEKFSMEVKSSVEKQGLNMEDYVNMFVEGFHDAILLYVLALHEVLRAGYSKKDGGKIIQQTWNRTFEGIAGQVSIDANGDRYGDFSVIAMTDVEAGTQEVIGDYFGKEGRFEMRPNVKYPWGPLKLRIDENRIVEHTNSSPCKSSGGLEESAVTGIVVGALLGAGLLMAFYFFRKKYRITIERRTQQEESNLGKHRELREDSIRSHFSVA

B1: Permanent Lys26 CNP-38 PEG 5 kDa conjugate 19e (peptide)
peptide: LQEHPNARKYKGANKKGLSKGCFGLKLDRIGSMSGLGC
modifications: 5 kDa PEG stably attached through maleimidohexanoyl/thiol to the side chain of Lys26 (ring lysine); disulfide Cys22-Cys38
B2: Reversible Lys26 CNP-38 PEG2x20 kDa conjugate 10f (peptide)
peptide: B1 peptide
modifications: disulfide 22-38; not fully specified (residue 26)
notes: This is a reversible conjugate with an in vitro release half-life of 8.5 d
B3: Reversible Lys26 CNP-38 PEG4x10 kDa conjugate 11i (peptide)
peptide: LQEHPNARKYKGANKKGLSKGCFGLK([reversible prodrug linker-4x10 kDa PEG])LDRIGSMSGLGC
modifications: disulfide 22-38; reading uncertain
notes: This is a reversible conjugate with an in vitro release half-life of 9.5 d
B4: Conjugate 31d (4-arm PEG 40 kDa, Lys26 CNP-38, reversible conjugate) (peptide)
peptide: B1 peptide
modifications: not fully specified; Lys26 side chain attached through a reversible Asn-linker (maleimidohexanoyl) to a thiol arm of 4-arm-thiol-PEG 40 kDa; disulfide Cys22-Cys38

Biological target: T1, NPR-B receptor (natriuretic peptide …)
Assay: cell-based or functional assay

B1 and B2 cannot be ordered by “EC50 compound/EC50 CNP-38 (residual NPR-B activity, cGMP production in NIH-3T3 cells)” value: greater than 100 ratio for the first, greater than 100 ratio for the second.

LQEHPNARKYKGANKKGLSKGCFGLKLDRIGSMSGLGC (disulfide 22-38; not fully specified (residue 26)) [Permanent Lys26 CNP-38 PEG4x10 kDa conjugate 12g] and {PEG 5 kDa-Hexanoyl(6-maleimido)}-LQEHPNARKYKGANKKGLSKGCFGLKLDRIGSMSGLGC (disulfide 22-38) [Permanent N-terminal CNP-38 PEG 5 kDa conjugate 15e] cannot be ordered by “EC50 compound/EC50 CNP-38 (residual NPR-B activity, cGMP production in NIH-3T3 cells)” value: greater than 100 ratio for the first, greater than 5 ratio for the second.

In the case of B3, the “EC50 compound/EC50 CNP-38 (residual NPR-B activity, cGMP production in NIH-3T3 cells)” value is reported as greater than 100 ratio.

Biological target: T1, NPR-B receptor (natriuretic peptide …)
Assay: cell-based or functional assay
Remark: another data set of the same source

For LQEHPNARKYKGANKKGLSKGCFGLKLDRIGSMSGLGC (disulfide 22-38), the “EC50 compound/EC50 CNP-38 (cGMP production in NIH-3T3 cells)” value was 1 ratio.

Biological target: T2, NPR-C (natriuretic peptide receptor C), …
Assay: competition with fluorescein-labelled CNP-38 27d on NPR-C expressing Hek293 cells, flow cytometry (MFI), 4PL fit; ratio to CNP-38
Excerpt: For the NPR—C affinity assay, a NPR—C expressing Hek293 cell line was developed. The coding region of the NPR—C sequence (BC131540) was cloned into a lentiviral vector under CMV promoter for constitutive receptor expression. A bicistronic element located on the vector for puromycin resistence was used as eukaryotic selection marker. After transduction, stably growing cell pools were subjected to qRT-PCR for confirmation of receptor mRNA-expression compared to parental Hek293 cells. An NPR—C-expressing cell pool was expanded and frozen as master cell bank for CNP sample testing.
For the assay, growing cells were trypsinized from the cell flask bottom, counted, and seeded in a 96-well plate (1.5×10⁵/well) and centrifuged. Supernatants were discarded. CNP standard and sample were serially diluted over 9 steps in PBS 0.2% BSA and transferred to the micro plate in duplicates and mixed with cells. […] Subsequently, cells were analyzed by flow cytometry using mean fluorescence intensity of the FITC channel (FL1, Beckman Coulter FC500MPL) as read out.

First: B1
Second: B2
The “IC50 of PEGylated CNP-38/IC50 CNP-38” value of the first is lower: 1.1 ratio for the first, 12 ratio for the second.

Compared with B4, LQEHPNARKYKGANKKGLSKGCFGLKLDRIGSMSGLGC (disulfide 22-38; not fully specified (residue 26)) [Permanent Lys26 CNP-38 PEG4x10 kDa conjugate 12g] is higher in “IC50 of PEGylated CNP-38/IC50 CNP-38” value: 1.7 ratio for the first, 143 ratio for the second.

First: {PEG 5 kDa-Hexanoyl(6-maleimido)}-LQEHPNARKYKGANKKGLSKGCFGLKLDRIGSMSGLGC (disulfide 22-38) [Permanent N-terminal CNP-38 PEG 5 kDa conjugate 15e]
Second: B3
The “IC50 of PEGylated CNP-38/IC50 CNP-38” value of the first is lower: 0.53 ratio for the first, 91 ratio for the second.
